The values below come from publication PMC10698284.

A short description of series [1]: Gal3-488 internalisation, 10 min 37 °C. The settings on record: glycan lost; control: WTseq.
The nature of series [2]: dox-induced expression and FLAG pull-down efficiency. The settings on record: control: WTseq.
Series [3] can be described thus: surface anti-SLC3A2 antibody binding at 4 °C, imaging. The settings on record: glycan lost; control: WTseq.
The nature of series [4]: anti-SLC3A2 antibody uptake, 10 min 37 °C. The settings on record: glycan lost; control: WTseq.
A short description of series [5]: endosomal distribution of internalised SLC3A2, confocal. The settings on record: glycan lost; control: WTseq (small peripheral endosomes).
Series [6] can be described thus: response of SLC3A2 endocytosis to 5 min inhibitor. The settings on record: glycan lost; control: WTseq (inhibitor reduced internalization by ∼50%).

B1: SLC3A2 (4F2hc, CD98): N381D (protein)
parent chain: MELQPPEASIAVVSIPRQLPGSHSEAGVQGLSAGDDSELGSHCVAQTGLELLASGDPLPSASQNAEMIETGSDCVTQAGLQLLASSDPPALASKNAEVTGTMSQDTEVDMKEVELNELEPEKQPMNAASGAAMSLAGAEKNGLVKIKVAEDEAEAAAAAKFTGLSKEELLKVAGSPGWVRTRWALLLLFWLGWLGMLAGAVVIIVRAPRCRELPAQKWWHTGALYRIGDLQAFQGHGAGNLAGLKGRLDYLSSLKVKGLVLGPIHKNQKDDVAQTDLLQIDPNFGSKEDFDSLLQSAKKKSIRVILDLTPNYRGENSWFSTQVDTVATKVKDALEFWLQAGVDGFQVRDIENLKDASSFLAEWQNITKGFSEDRLLIAGTNSSDLQQILSLLESNKDLLLTSSYLSDSGSTGEHTKSLVTQYLNATGNRWCSWSLSQARLLTSFLPAQLLRLYQLMLFTLPGTPVFSYGDEIGLDAAALPGQPMEAPVMLWDESSFPDIPGAVSANMTVKGQSEDPGSLLSLFRRLSDQRSKERSLLHGDFHAFSAGPGLFSYIRHWDQNERFLVVLNFGDVGLSAGLQASDLPASASLPAKADLLLSTQPGREEGSPLELERLKLEPHEGLLLRFPYAA
Regarding B1, the “other: Gal3 uptake by expressing cells” value in series [1] is “decreases”. The expression_or_secretion result in series [2] (glycan lost) is given as “no change”. For the same protein, the localisation_or_trafficking result in series [3] was “no change”; in series [4] it was “increases”; in series [5], “changes”; in series [6] it was “abolishes”.

B2: SLC3A2 (4F2hc, CD98): D355N + D492N (protein)
parent chain: B1 parent chain
With B2, in series [2] (glycan gained), the expression_or_secretion result is given as “no change”.

B3: SLC3A2 (4F2hc, CD98): A273N (protein)
parent chain: B1 parent chain
As to B3, in series [2] (glycan gained), the expression_or_secretion result is “no change”.

B4: SLC3A2 (4F2hc, CD98): A273N + D355N (protein)
parent chain: B1 parent chain
Regarding B4, the expression_or_secretion result in series [2] (glycan gained) is “no change”.

B5: SLC3A2 (4F2hc, CD98): N365D (protein)
parent chain: B1 parent chain
Consider B5, for which the “other: Gal3 uptake by expressing cells” value in series [1] is given as “increases”. Further, in series [2] (glycan lost), the expression_or_secretion entry is on record as “no change”. Besides, the localisation_or_trafficking result in series [3] was “no change”; in series [4], “increases”; in series [5], “changes”; in series [6], “changes”.
